How the values were obtained:
Assay in all cases: cell ELISA: soluble GPVI-Fc (0.45-1000 nM) competing with GPVI-U937 cells for 100 nM scFv
scFv clone A10 = target: T1, scFv clone A10
T1 construct: human scFv from a phage display library; detected through an HA tag, purified through a polyHis tail

scFv clone B4 = target: T2, scFv clone B4
T2 construct: human scFv from a phage display library

scFv clone C3 = target: T3, scFv clone C3
T3 construct: human scFv from a phage display library

- IC50 (scFv clone A10): 4.5 nM
- IC50 (scFv clone B4): 5 nM
- IC50 (scFv clone C3): 38 nM
B1: soluble human GPVI-Fc (extracellular domain of GPVI fused to Fc; hGPVI-human IgG1Fc) (Fc fusion)
chain: QSGPLPKPSLQALPSSLVPLEKPVTLRCQGPPGVDLYRLEKLSSSRYQDQAVLFIPAMKRSLAGRYRCSYQNGSLWSLPSDQLELVATGVFAKPSLSAQPGPAVSSGGDVTLQCQTRYGFDQFALYKEGDPAPYKNPERWYRASFPIITVTAAHSGTYRCYSFSSRDPYLWSAPSDPLELVVTGTSVTPSRLPTEPPSSVAEFSEATAELTVSFTNKVFTTETSRSITTSPKESDSPAGPARQYYTKGN
notes: also called hGPVI-hIgG1Fc; hrGPVI; not shown: human IgG1 Fc

Reference: US6989144
